A short description of this data set: protein stability index of a GFP-peptide fusion (GPS, HEK-293T) (PSI 1-6); higher = more stable. The settings on record: c terminus: a fixed tail appended.

± gives the standard deviation.
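Also: 24-mer peptide tiles fused after GFP, lentivirally expressed, FACS-sorted into six equal bins by GFP/DsRed ratio, decoded by Illumina sequencing, PSI is the read-weighted mean bin number.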

On to AAARAAQRRRRVENAGGSPSPEPA [RSAD1], for which the protein stability index runs as follows: (treatment: DMSO) 5.25 ± 0.087; (treatment: MLN4924 1 uM, 8 h) 5.12 ± 0.44.

Regarding AARSPQGLGASTAEISARTMQSMF [PTPRD], the protein stability index turned out to be 3.38 ± 0.26 (treatment: DMSO) and 3.29 ± 0.34 (treatment: MLN4924 1 uM, 8 h).

As to AASISDGDCDAREEKQRELARKGS [FAM219A], the protein stability index reads like this: (treatment: DMSO) 5.54 ± 0.2; (treatment: MLN4924 1 uM, 8 h) 5.52 ± 0.2.

Regarding AATQALPQDSGTAAWKGRVLLPET [C22orf31], the protein stability index was 4.11 ± 0.062 (treatment: DMSO) and 4.1 ± 0.24 (treatment: MLN4924 1 uM, 8 h).

AAVKAAREAFPSWSSRSPQERSRV [ALDH8A1]: the protein stability index by setting is: (treatment: DMSO) 3.73 ± 0.23; (treatment: MLN4924 1 uM, 8 h) 3.88 ± 0.48.

For the sequence ACALLLTSVDHDRAPVVGVRVNVL [DLC1], the protein stability index (treatment: DMSO) came to 2.33 ± 0.32 and the protein stability index (treatment: MLN4924 1 uM, 8 h) turned out to be 2.68 ± 0.36.

With ACRFQEDQEMARDLVERALYSMEC [TCF25], the protein stability index is, setting by setting: (treatment: DMSO) 2.34 ± 0.57; (treatment: MLN4924 1 uM, 8 h) 2.49 ± 0.53.

For ADWAVMDVVNYFRTVGFEEQASAF [SAMD13], the protein stability index (treatment: DMSO) was found to be 2.21 ± 0.3 and the protein stability index (treatment: MLN4924 1 uM, 8 h) turned out to be 2.59 ± 0.19.

On to AECALVSLKEAEFYDKQLKVLLSG [ZFYVE21], for which the protein stability index runs as follows: (treatment: DMSO) 2.86 ± 0.24; (treatment: MLN4924 1 uM, 8 h) 3.05 ± 0.48.

Regarding AEGDSWEEEGFGSSSPVKSPAAPY [WEE1], the protein stability index reads like this: (treatment: DMSO) 5.28 ± 0.13; (treatment: MLN4924 1 uM, 8 h) 5.19 ± 0.22.

For the sequence AEGRTGFPWIDAIMTQLRQEGWIH [CRY1], the protein stability index came out at 2.35 ± 0.3 (treatment: DMSO) and 2.13 ± 0.33 (treatment: MLN4924 1 uM, 8 h).

On to AEMAEDYPRYPDIHDLDLTLLNPR [CLCN6], for which the protein stability index was determined as 4.05 ± 0.28 (treatment: DMSO) and 4.21 ± 0.25 (treatment: MLN4924 1 uM, 8 h).

As for AESHASKDVAIDMMDSRTSQQLQL [STX5], the protein stability index runs as follows: (treatment: DMSO) 4.98 ± 0.11; (treatment: MLN4924 1 uM, 8 h) 4.89 ± 0.18.

AFGKICHMVSDGSWVVRVQAAKLL [INTS4]: the protein stability index is 2.74 ± 0.49 (treatment: DMSO) and 2.88 ± 0.58 (treatment: MLN4924 1 uM, 8 h).

Regarding AGFDALQGDPKGEMAATPAGFAQL [HDAC6], the protein stability index (treatment: DMSO) stood at 4.37 ± 0.21 and the protein stability index (treatment: MLN4924 1 uM, 8 h) worked out at 4.09 ± 0.36.

Regarding AGGRVFVLPCIQQIQRISLNTLTL [FLOT1], the protein stability index is, setting by setting: (treatment: DMSO) 2.96 ± 0.57; (treatment: MLN4924 1 uM, 8 h) 2.93 ± 0.59.

As for AGLSLLSPSVMRLVHTQEPGEWLE [ALKBH7], the protein stability index reads like this: (treatment: DMSO) 2.71 ± 0.38; (treatment: MLN4924 1 uM, 8 h) 2.79 ± 0.24.

AHLGEEAHKCLECGKCFSQNTHLT [ZNF263]: the protein stability index is, setting by setting: (treatment: DMSO) 3.45 ± 0.34; (treatment: MLN4924 1 uM, 8 h) 3.55 ± 0.48.

AIFDAGTLGGELGALEALELSPPL [FOXJ1]: the protein stability index reads like this: (treatment: DMSO) 3.26 ± 0.23; (treatment: MLN4924 1 uM, 8 h) 3.31 ± 0.31.

Regarding AIHGYTVWAHNLIAIARLRGSDLK [FBXO33], the protein stability index (treatment: DMSO) is 3.13 ± 0.8 and the protein stability index (treatment: MLN4924 1 uM, 8 h) stood at 2.46 ± 0.42.

As to AIPEAIGFVMVPFEYRGEQHKTCM [EDNRA], the protein stability index runs as follows: (treatment: DMSO) 2.36 ± 0.32; (treatment: MLN4924 1 uM, 8 h) 2.31 ± 0.27.

Sequence AIYFTAYDQLKAFLCGRALTSDLY [SLC25A39] displayed a protein stability index (treatment: DMSO) of 3.35 ± 0.83 and a protein stability index (treatment: MLN4924 1 uM, 8 h) of 3.37 ± 0.57.

On to ALAIKVNLCGHWYYSKACCRSCRP [ADAMTSL2], for which the protein stability index reads like this: (treatment: DMSO) 2.43 ± 0.38; (treatment: MLN4924 1 uM, 8 h) 2.77 ± 0.62.

As to ALDERAKVLHEDKQTREQLHSISD [TRIM29], the protein stability index stood at 5.25 ± 0.27 (treatment: DMSO) and 5.31 ± 0.37 (treatment: MLN4924 1 uM, 8 h).

For the sequence ALKDNKSPLHLVQMPPVIVETARS [PI4K2A], the protein stability index runs as follows: (treatment: DMSO) 3.8 ± 0.29; (treatment: MLN4924 1 uM, 8 h) 3.82 ± 0.29.

Take ALKEKEKASWSSLSMDEKVELYRI [COX4I1]: the protein stability index (treatment: DMSO) was 3.65 ± 0.27 and the protein stability index (treatment: MLN4924 1 uM, 8 h) came to 3.95 ± 0.23.

Take ALRAAEVWMDDFKSHVYMAWNIPM [GALNT9]: the protein stability index reads like this: (treatment: DMSO) 2.35 ± 0.8; (treatment: MLN4924 1 uM, 8 h) 2.24 ± 0.71.

In turn, ALRERWLLEGTPSSASEGDEDLRR [PALM] had a protein stability index (treatment: DMSO) of 5 ± 0.25 and a protein stability index (treatment: MLN4924 1 uM, 8 h) of 5.14 ± 0.21.

As to ALRGAAVDEYFRQPVVDTFDIRIL [CARM1], the protein stability index by setting is: (treatment: DMSO) 2.48 ± 0.45; (treatment: MLN4924 1 uM, 8 h) 2.6 ± 0.27.

For the sequence ALRVQQLVAKELGQTGTRLTPADK [AUP1], the protein stability index runs as follows: (treatment: DMSO) 4.04 ± 0.18; (treatment: MLN4924 1 uM, 8 h) 4.16 ± 0.14.

On to ALYVQAPTVTIEGFLQALSLAVDK [TRIP13], for which the protein stability index is, setting by setting: (treatment: DMSO) 2.09 ± 0.46; (treatment: MLN4924 1 uM, 8 h) 2.2 ± 0.17.

Turning to AMEPEPAPAPAPEEWLDILGNGLL [FKBP8], the protein stability index reads like this: (treatment: DMSO) 4.47 ± 0.1; (treatment: MLN4924 1 uM, 8 h) 4.59 ± 0.41.

Sequence AMYIDTEGTFRPERLLAVAERYGL [RAD51] had a protein stability index (treatment: DMSO) of 2.37 ± 0.19 and a protein stability index (treatment: MLN4924 1 uM, 8 h) of 2.39 ± 0.27.

As to ANETLAEMEEELRYAPLSFRNPMM [VTI1B], the protein stability index was determined as 2.42 ± 0.63 (treatment: DMSO) and 3.01 ± 0.56 (treatment: MLN4924 1 uM, 8 h).

Regarding ANLTPNVGGYFVDKFVATMYHYLQ [P3H4], the protein stability index was 2.38 ± 0.69 (treatment: DMSO) and 2.23 ± 0.32 (treatment: MLN4924 1 uM, 8 h).

Consider ANYTCVAMSTLGVIEAIAQITVKA [PTPRD], for which the protein stability index reads like this: (treatment: DMSO) 2.63 ± 0.16; (treatment: MLN4924 1 uM, 8 h) 3.29 ± 0.93.

Values taken from the supplement of paper PMC10567573.
